# Measured values from paper PMC5407579.
# Key:
# [1] = molecular target: α subunit of the oxygenase component of 3-nitrotoluene dioxygenase (3NTDO-ODS2) from Diaphorobacter sp. strain DS2 (Diaphorobacter sp. strain DS2); experiment: crystal structure; oxygenase 3NTDO-ODS2 (α and β co-expressed and co-purified), hanging drop vapor diffusion at 277 K, 0.2M sodium citrate tribasic and 20% PEG 3350 pH 8.3; molecular replacement with 1NDO; 2.9 Å
# [2] = molecular target: β subunit of the oxygenase component of 3-nitrotoluene dioxygenase (3NTDO-ODS2) from Diaphorobacter sp. strain DS2 (Diaphorobacter sp. strain DS2); experiment: as above
stoichiometry N [1],stoichiometry N [2],Substance
3,,α subunit of the oxygenase component of 3-nitrotoluene dioxygenase (3NTDO-ODS2) from Diaphorobacter sp. strain DS2 (natural protein)
,3,β subunit of the oxygenase component of 3-nitrotoluene dioxygenase (3NTDO-ODS2) from Diaphorobacter sp. strain DS2 (natural protein)
